# Measurements from patent US20120027677A1.
# Like-named read-outs stand apart in the source and are kept apart here.
# What was measured:
# [1] = target: T1, PrP^Sc, pathogenic form of the human prion protein (from CJD brain homogenate) (human), P04156
# [2] = target: T1, PrP^Sc, pathogenic form of the human …; remark: listed apart in the source
# [3] = target: T1, PrP^Sc, pathogenic form of the human …; remark: listed apart in the source
# [4] = target: T1, PrP^Sc, pathogenic form of the human …; remark: listed apart in the source
binder,measurement,setting,value
GGGKKRPKPGG (modifications not checked) [peptide of SEQ ID NO: 68],Exp. Mean (ELISA signal),[1],853 RLU
same,Exp. Mean (as % of 68),[1],100%
same,Exp. Mean (ELISA signal),[2],418 RLU
same,Exp. Mean (as % of 68),[2],100%
same,Mean (% of 68),[3],100%
same,Mean (ELISA signal),[3],85 RLU
same,Mean (ELISA signal),[4],138 RLU
